In data set [1] the target is EA2 acceptor peptide (…) (rat). Briefly: cell-based or functional assay.
Data set [2] relates to MUC7 acceptor peptide (Ac-CPPTPSATTPAPPSSSAPPETTAA).
For data set [3], the system named is EA2 acceptor peptide (PTTDSTTPAPTTK).
Data set [4] deals with MUC2 acceptor peptide (…) (human). As to the kind of experiment: cell-based or functional assay.
Sequence of MUC2 acceptor peptide (…) (human) (peptide, as listed by the source): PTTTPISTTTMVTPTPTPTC

Sequence of purified human recombinant GalNAc-T2 (enzyme source of Examples 1-6) (chain, as listed by the source): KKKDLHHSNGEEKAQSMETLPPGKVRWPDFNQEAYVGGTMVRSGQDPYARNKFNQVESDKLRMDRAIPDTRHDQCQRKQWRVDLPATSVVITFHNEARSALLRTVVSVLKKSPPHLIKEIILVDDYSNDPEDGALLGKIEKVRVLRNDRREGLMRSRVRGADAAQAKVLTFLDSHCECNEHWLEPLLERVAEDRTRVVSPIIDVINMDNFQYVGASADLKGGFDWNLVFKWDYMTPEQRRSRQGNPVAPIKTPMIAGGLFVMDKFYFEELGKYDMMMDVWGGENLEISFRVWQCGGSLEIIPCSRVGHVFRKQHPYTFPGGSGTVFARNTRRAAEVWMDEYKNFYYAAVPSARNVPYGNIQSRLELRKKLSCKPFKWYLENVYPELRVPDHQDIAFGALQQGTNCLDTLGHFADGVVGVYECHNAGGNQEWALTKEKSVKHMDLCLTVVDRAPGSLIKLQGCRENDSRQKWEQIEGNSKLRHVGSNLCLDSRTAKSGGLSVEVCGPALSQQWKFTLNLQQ

For the substance “human recombinant GalNAc-T3 (enzyme source of Example 6) (from UniProt Q14435 52-633)”, in data set [1], the galactosyltransferase activity with UDP-Gal donor substrate, no inhibitor is 6.3 nmol/min/mL.
As to “purified human recombinant GalNAc-T2 (enzyme source of Examples 1-6)”, the “GalNAc-T2 activity with UDP-Gal” value in data set [2] is listed as “Muc7, 13 nmol/min/ml”; in data set [3], “EA2, 1.5 nmol/min/ml”.
In data set [4], “purified human recombinant GalNAc-T2 (enzyme source of Examples 1-6) (from UniProt Q10471 52-571)” returned a galactosyltransferase activity with UDP-Gal donor substrate, no inhibitor of 90 nmol/min/mL.

Source of the values: patent publication US7338932.
